This is an account of results in the DeepSol protein solubility set.

This data set in a line: soluble on expression in E. coli; label from the status in PepcDB or PDB records.
“MPMNTSKQSNTVKQLITSLDNFEPSRLTIKDFQEGKGVGPKMAFLRYNHPSLGEDTSLMLQTPWITLTSGGIPRYNEQYHKNDKDRAYLRLPLEEGTDFFNKITALDEQFSSDEFKKEKFGKLYKKYSMYPCVKITEQEEGDTRDPLPPSLKLRFSLVWNEEDKDACEINTQVFTSKMEDGKRTRTPVPVSSLKDMESLVRLGAKLRLIVRPVSAWMNPKKEYGIKWKIQKMEVEPSTAGNALMKEFYETDAFIDSDDEEDVELPPSATGKKTSTKTTKEDDEDEDDDDDDDDDDVGEKSEDSDEASDEESDEESDEDSEEDSPDIPVRKSKGKGKSKGLDL”: the “soluble on expression in E. coli” value is listed as “not soluble”. For “MYSVSLMHGNPKTAIRPAGWHYGRRVYWIEGLPLIGHIAFGVIDRGTNVLQVRPSTLCFHNCIFCSVDAGPSSRRRRSEYTVEWEQLVVWVEKVARVKGGGLEALIDGVGEPLTHPHITRIIKALKGLDAIERVALETHGGSLSKSLARALEKAGLDRINLSVDAADPRLARSLVGVDWYGVDRVLKTAEWIIANTSIDVVLTPVVLPGVNEKEMATLVHWARRVGAGRKSGWPTGVLIQKFEIHKYGRKPSTVKSVWGWRRFYTWLARLEKETGYRLLVDPGEIGFKPRPRVEKPFERGDRVTLVLVGPGWHKGELLAVDRGWRRVVALYGLTEGEALTPGAEVEARIVRDKDNIFIAVPYAAALEHHHHHH”, the “soluble on expression in E. coli” value is on record as “soluble”.

As to “SLKQQLIKNGLVLDMKGNHKPQAKDILIEGKWIRDIRPNIEPEVDTEIIDAEGKIVMPGFVDTHRHVWESLLRHIGTDWTLLTYLDNLYYGNLGSMLTPEDSYIANLWGALEAIDAGVTTVLDWSMLETPEHADASIKGLQAAGIRAVFAHGTPGYETYWSRDSEVRHPKDAKRVKKEYFQSDDQLLTMALAIRGPEFSSWEVTLDDIQLARELDAIASMHIGFGTWGPHDRSITRMREAGLLDSDLNLVHVNRIQPHEYEYIAESGASLSVTPEVEMMMGHGYPATGYLHKHRGLVTLGVDVVVATAGDMFAQMKFALQAERAWQNEQRLDRGEMPEQLKMTTNDVLTFATLNGAKALKLDDKIGTLDVGKEADLLLINPSSFNLFPLNHEPVGAVVQSARPENVDSVFIAGRPVKRHGKLLFDDLDGLRNKVLAASEAVFHRQAAKN”, the “soluble on expression in E. coli” value is given as “not soluble”. Consider “WTVIGGYLIVAGKDATTNEMLIKRYVEKNDIVFHTLMEGAPFTIIRTEGSEEIPDENILFEVAKFAASHSRAWKLGIGSADVYWVRPDQISKTAESGEYLKK”, for which the “soluble on expression in E. coli” value is given as “not soluble”. For “MGSDKIHHHHHHMSTDKLAIIAVTERGRDLAITLTKTVAATIFVPEKHCTEQTNSLTPDFGTAMREIFTKYQALICIMATGIAVRTLAPVIEDKLSDPAVLVMDEHGKFIISLLSGHVGGANELTERIATITGGAAVITTATDRANVAAIDNIAKQLNGYLPDFKATTKRINGLLAAGKEVGLYIDEPLEIDTRGFTMEEVSPQVYISTKYKLQVATHERIQLVPKQFILGVGCRKGVSAETIDAAFTHFCEQENIHPRAFREIHSITLKAEEPAILHLAEKWHVPFIVHPAEELQTVAGKYPTSAFVQKTVQVGNVALSSADIGSNGNVVTSRFAENGVTFAAGKLTKNSEVAK”, the “soluble on expression in E. coli” value is listed as “not soluble”. The result for “MGSDKIHHHHHHMIDHLIATDIGGRGSEKLYILYKSKDPDYFSKSLDLLIKSDEVLIVSDFPIPPTMTPETDGPPGALALALGLAELGKKATILTQEIVKEGLRDFYPRITTKFPNIRKFSCLVSIETPGRNFKGEYLSFSGLKISVRPYDDLFLRALELGIPTIGIGDGGNEIGMGNLGLNDERFSVVRVNELIIAGVSNWGAYGLVAGLSMRVGQNLLRDYNEEDVVKSLVDVGLIDGITKKREPTVDGLPLSLHGKILELLIEIVNIKTP” reads “not soluble”; that for “MGSDKIHHHHHHMLSRTASELFWMARYLERAESYARVLDVTWKLSMIPRHSQQSRDLALPLNLSMTHELFQARHARFTMSNLLNFFALDGNNPCSIYSCVEMAWNNAHAVRGSLSAEVWESINATRIELRTLRQQGLGELGSDGFFEWVKERVHLFRGAVIGTLLRNDALSFIGIGTLIERAFATTQLLLIKDQQLTNDPDPVREYYRLDTLLNAVSAREAYNSLYRQPVSRETVMELLILRNDIPRSLRASIADLVGELEKIANDRSYQPLRLAHQLNVDLRFSTRDDLAQADLQTTLNGLLARINALSDSIRQTYLEAL”, “not soluble”; that for “MGSDKIHHHHHHMTGRVVTVFGGSGSIGRQLVALLADQGARVRVAVRDTEKAHFLKPLGQLGQIAPISASVSDAASVKRAVEGADQVVNLVGILAESGRRTFQAVHVDGAATVARASAEAGVDALIHMSALGADEASDANYSKTKALGEKAVREAFPAATILRPSVVFGPDDGFFNLFAGLQRLSPVLPYFTRDGFRRGGSGVCGIDLAGSGGPKFQPVYVGDVARAMIAILDTPALRGKTYELGGPRVYSMKEIMDLVVAVTRRRTLVVPLPFWVARLQGRLLEKLPNPPLTSDQVRLMEVDNVCSGALPGLGDLGIEPEAAEAILPTYLSRFRGLDRHMILRGDGRPPKV”, “not soluble”. As to “MGSDKIHHHHHHMMELRYNPLTDEWVIVSAATQKRPVQPSKTECPICVGGLELPEEYDLVTFENRYPSLKKDPPPVNWKEKGPFRKEESRGVCEVVVYTSDHNTALPGMPLKQIEKLVEMWVDRTRDLSQHDFVKYIFIFENRGKEVGASLPHPHGQIYAFPFLPKRIEVKIGAMRKWYEEKRKCPICEVLESEGEERKVYETEHFLALVPFYARFPYEVHIYPKRHVSTLLEFSKEEKKEFAKVLKVVTAKYDKLFDQEFPYMMMFFQAPFNEEDVSHFFHFHVEFNPPKRDRDKLKWMASVETGTWAFINPVVPEEAARQLRETEVEI”, the “soluble on expression in E. coli” value is on record as “not soluble”. As to “MGSDKIHHHHHHMYSYNQLRRVTFNQLGRIAYNSRSSPRRRAVFERLAGARPVVLTQERERLAVLDHANDIILEQEINGIDTVTFNIPFSDEKNQFIQNEHLIQIIDDYYIIRKITHSRGSQGVPITEVYAEALWYDLQFAEPMDISEWEGRAPAIVMADILRGTDWSVGRVELMNVRNVSVEPGVTNRLAALSQLPEVYGGELHFNSEAMTVDFLAPVGRQSGAAIVYEKNIHSIEAIYDTEDLITRIYPYGKENLSIEDINDGVPYLDIRDDPSYEFTDKLRVRILKDDRFTNPFHLREMAEEALKVLSQPRTSYHIKAADLSEMAGMSHEQFFLGDEVRVYDKELGIDIATRIMAWQYNVAEPWNTEIMLESKQPTLSDLLTGIQEGTGFLQSEDTVDSSDMLELSVFNHILNSRADDGFHYWTNSGWEIDAVNGYSGNASFKATGTTGRKVLSQTVYPAHRDHYAISFRSATKEFQTNDGGRVGLEIIVRYDDGTEDEPTFISLT”, the “soluble on expression in E. coli” value was “not soluble”. With “STKLTGYVWDGCAASGMKLSSVAIMARLADFSNDEGVCWPSIETIARQIGAGMSTVRTAIARLEAEGWLTRKARRQGDGSSPHCAVVDEYHEHATDALYTTMLTGMGARRQPLMWAITTAGYNIEGPCYDKRREVIEMLNGSVPNDELFGIIYTVDEGDDWTDPQVLEKANPNIGVSVYREFLLSQQQRAKNNARLANVFKTKHLNIWASARSAYFNLVSWQSCEDKSLTLEQFEGQPCILAFDLARKLDMNSMARLYTREIDGKTHYYSVAPRFWVPYDTVYSVEKNEDRRTAERFQKWVEMGVLTVTDGAEVDYRYILEEAKAANKISPVSESPIDPFGATGLSHDLADEDLNPVTIIQNYTNMSDPMKELEAAIESGRFHHDGNPIMTWCIGNVVGKTIPGNDDVVKPVKEQAENKIDGAVALIMAVGRAMLYEKEDTLSDHIESYGIRSL”, the “soluble on expression in E. coli” value is “soluble”.

Turning to “MPAAAPGKNFDLSHWKLQLPDANTTEISSANLGLGYTSQYFYTDTDGAMTFWAPTTGGTTANSSYPRSELREMLDPSNSKVNWGWQGTHTMKLSGKTVQLPSSGKIIVAQIHGIMDDGTNAPPLVKAVFQDGQLDMQVKQNSDGTGSDVHNYFTGIKLGDLYNMEIRVTDGVAYVTMNGDTRSVDFVGKDAGWKNLKYYFKAGNYVQDNTSTGGSAIAKLYSLSVSHSNLEHHHHHH”, the “soluble on expression in E. coli” value is recorded as “soluble”. With “MGSDKIHHHHHHMSASSNRTIPVFQLYGETHQWPTPDLLHCESIAERSRLHDWHIRPHRHADLVHVLHIAHGDVNLTFEEGAQRLTGPLLIVVPAMTVHAFRFSRDVDGHIVTLAMPLARHIADTLHPQGQILARAAFYPLADQPERAPIATLVDQLDAEYRHPADGRDALLEALLNSLLVLASRRATRRQARPASRQHERGEAHLARFQQLIEAHYHQQPSIPEFAERLGISSAHLSAVCQRLAGRSAQQLLHERVLLEAKRHLTYTNMTIGQVAERLGFKEPAYFTRFFKRHVACSPKEFRQRQA”, the “soluble on expression in E. coli” value is “not soluble”.
